Experimental data: paper PMC3458577 (Nucleic Acids Research, 2012)

Target: Recombinant human WRN protein (wild type) (human, UniProt Q14191 1-1432)
Assay: co-IP

Recombinant human WRN protein (wild type), sequence (Q14191 whole entry): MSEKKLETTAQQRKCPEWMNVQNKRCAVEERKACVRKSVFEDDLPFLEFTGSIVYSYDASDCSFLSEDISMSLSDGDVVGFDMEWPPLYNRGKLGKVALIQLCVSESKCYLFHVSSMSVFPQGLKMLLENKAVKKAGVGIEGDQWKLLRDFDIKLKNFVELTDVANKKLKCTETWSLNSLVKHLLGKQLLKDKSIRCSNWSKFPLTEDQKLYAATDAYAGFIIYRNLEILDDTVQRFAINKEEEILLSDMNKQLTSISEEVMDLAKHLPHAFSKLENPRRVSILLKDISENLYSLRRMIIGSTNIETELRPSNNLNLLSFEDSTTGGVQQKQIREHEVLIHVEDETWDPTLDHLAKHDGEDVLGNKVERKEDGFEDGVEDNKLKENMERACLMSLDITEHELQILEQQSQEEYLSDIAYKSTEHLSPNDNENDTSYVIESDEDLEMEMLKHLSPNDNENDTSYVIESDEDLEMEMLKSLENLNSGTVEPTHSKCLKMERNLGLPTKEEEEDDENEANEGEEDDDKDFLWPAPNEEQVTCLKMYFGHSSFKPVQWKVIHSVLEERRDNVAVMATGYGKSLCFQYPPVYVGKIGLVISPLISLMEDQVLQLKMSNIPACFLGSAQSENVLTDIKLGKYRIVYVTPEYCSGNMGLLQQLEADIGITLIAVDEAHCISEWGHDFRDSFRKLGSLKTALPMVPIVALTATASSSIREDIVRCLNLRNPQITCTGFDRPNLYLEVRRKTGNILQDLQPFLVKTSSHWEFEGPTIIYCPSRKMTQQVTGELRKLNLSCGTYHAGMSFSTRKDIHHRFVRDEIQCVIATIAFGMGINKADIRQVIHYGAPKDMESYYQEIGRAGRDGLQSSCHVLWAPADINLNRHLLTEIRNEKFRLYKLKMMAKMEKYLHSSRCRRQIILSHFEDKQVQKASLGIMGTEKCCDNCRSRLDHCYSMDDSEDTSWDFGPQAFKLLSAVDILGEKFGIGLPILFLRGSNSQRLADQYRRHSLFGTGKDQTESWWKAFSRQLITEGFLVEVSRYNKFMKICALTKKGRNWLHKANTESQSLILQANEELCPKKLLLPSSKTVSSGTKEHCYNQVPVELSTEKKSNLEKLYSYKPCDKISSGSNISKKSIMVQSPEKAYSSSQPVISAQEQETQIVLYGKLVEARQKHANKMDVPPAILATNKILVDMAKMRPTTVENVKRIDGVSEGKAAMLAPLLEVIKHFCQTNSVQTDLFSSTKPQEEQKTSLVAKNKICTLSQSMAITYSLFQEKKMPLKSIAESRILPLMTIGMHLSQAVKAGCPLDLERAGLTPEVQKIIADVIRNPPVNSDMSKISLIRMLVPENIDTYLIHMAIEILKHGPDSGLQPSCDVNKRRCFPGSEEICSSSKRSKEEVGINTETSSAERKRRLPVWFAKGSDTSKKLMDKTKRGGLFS

B1: (His)6-tagged Polλ244–575 (domain or fragment, human, UniProt Q9UGP5 244-575, looked up)
chain: PSSQKATNHNLHITEKLEVLAKAYSVQGDKWRALGYAKAINALKSFHKPVTSYQEACSIPGIGKRMAEKIIEILESGHLRKLDHISESVPVLELFSNIWGAGTKTAQMWYQQGFRSLEDIRSQASLTTQQAIGLKHYSDFLERMPREEATEIEQTVQKAAQAFNSGLLCVACGSYRRGKATCGDVDVLITHPDGRSHRGIFSRLLDSLRQEGFLTDDLVSQEENGQQQKYLGVCRLPGPGRRHRRLDIIVVPYSEFACALLYFTGSAHFNRSMRALAKTKGMSLSEHALSTAVVRNTHGCKVGPGRVLPTPTEKDVFRLLGLPYREPAERDW
B1: binds.

B2: Recombinant human Polλ protein (enzyme, UniProt Q9UGP5 1-575, looked up)
chain: MDPRGILKAFPKRQKIHADASSKVLAKIPRREEGEEAEEWLSSLRAHVVRTGIGRARAELFEKQIVQHGGQLCPAQGPGVTHIVVDEGMDYERALRLLRLPQLPPGAQLVKSAWLSLCLQERRLVDVAGFSIFIPSRYLDHPQPSKAEQDASIPPGTHEALLQTALSPPPPPTRPVSPPQKAKEAPNTQAQPISDDEASDGEETQVSAADLEALISGHYPTSLEGDCEPSPAPAVLDKWVCAQPSSQKATNHNLHITEKLEVLAKAYSVQGDKWRALGYAKAINALKSFHKPVTSYQEACSIPGIGKRMAEKIIEILESGHLRKLDHISESVPVLELFSNIWGAGTKTAQMWYQQGFRSLEDIRSQASLTTQQAIGLKHYSDFLERMPREEATEIEQTVQKAAQAFNSGLLCVACGSYRRGKATCGDVDVLITHPDGRSHRGIFSRLLDSLRQEGFLTDDLVSQEENGQQQKYLGVCRLPGPGRRHRRLDIIVVPYSEFACALLYFTGSAHFNRSMRALAKTKGMSLSEHALSTAVVRNTHGCKVGPGRVLPTPTEKDVFRLLGLPYREPAERDW
B2: binds.
